± gives the uncertainty stated by the source.
Assay: self-splicing fitness, log relative to wild type (ln ratio); higher = more splicing; Tetrahymena group I intron in knt gene, E. coli kanamycin selection, DiMSum; sequences stand for … in CUCUCU…GGAGGGAAAAGUUAUCAGGCAUGCACCUGGUAGCUAGUCUUUAAACCAAUAGAUUGCAUCGGUUUAAAAGGCAAGACCGUCAAAUUGCGGGAAAGGGGUCAACAGCCGUUCAGUACCAAGUCUCAGGGGAAACUUUGAGAUGGCCUUGCAAAGGGUAUGGUAAUAAGCUGACGGACAUGGUCCUAACCACGCAGCCAAGUCCUAAGUCAACAGAUCUUCUGUUGAUAUGGAUGCAGUUCACAGACUAAAUGUCGGUCGGGGAAGAUGUAUUCUUCUCAUAAGAUAUAGUCGGACCUCUCCUUAAUGGGAGCUAGCGGAUGAAGUGAUGCAACACUGGAGCCGCUGGGAACUAAUUUGUAUGCGAAAGUAUAUUGAUUAGUUUUGGAGUACUCGUGGUCG
In short: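 Fitness was computed with DiMSum as the error-weighted combination of replicate fold changes, kanamycin versus none, each normalised to wild type. The library randomised all eight intron nucleotides of the P1ex region, with the intron placed in the knt kanamycin-resistance gene on pET-22b(+) in E. coli BL21(DE3). Six replicate transformations were grown overnight at 37°C or 30°C on LB agar with or without 25 μg/mL kanamycin, plus 100 μg/mL carbenicillin, 50 μM IPTG and 0.2% rhamnose. Pooled colonies were amplicon-sequenced on an Illumina HiSeq 2500.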

Sequence | self-splicing fitness (ln) (30 °C) | self-splicing fitness (ln) (37 °C)
CUGGAGCAAUAUUACGGCCU | -2.88 ± 0.38 | -1.85 ± 0.3
CUGGAGCAAUAUUACGGGCG | -1.16 ± 0.12 | -0.434 ± 0.12
CUGGAGCAAUAUUACGGUGG | -3.55 ± 0.14 | -1.93 ± 0.12
CUGGAGCAAUAUUACGGUGU | -4.16 ± 0.36 | -2.02 ± 0.2
CUGGAGCAAUAUUACGUACG | -0.531 ± 0.089 | 0.504 ± 0.12
CUGGAGCAAUAUUACGUCAC | -2.63 ± 0.39 | -2.53 ± 0.39
CUGGAGCAAUAUUACGUGAA | -3.42 ± 0.22 | -2.01 ± 0.16
CUGUAGCAAUAUUACGAAUA | -2.54 ± 0.37 | -2.82 ± 0.48
CUGUAGCAAUAUUACGACCG | -0.99 ± 0.34 | 0.0218 ± 0.25
CUGUAGCAAUAUUACGAGUG | -0.807 ± 0.07 | 0.314 ± 0.11
CUGUAGCAAUAUUACGAUCG | 0.206 ± 0.16 | 0.548 ± 0.21
CUGUAGCAAUAUUACGAUGC | -2.62 ± 0.17 | 
CUGUAGCAAUAUUACGCAUG | -1.06 ± 0.1 | -0.55 ± 0.13
CUGUAGCAAUAUUACGCGCA | -2.23 ± 0.39 | -2.52 ± 0.41
CUGUAGCAAUAUUACGCGUG | -1.41 ± 0.1 | -0.0484 ± 0.12
CUGUAGCAAUAUUACGCUAU |  | -0.73 ± 0.29
CUGUAGCAAUAUUACGCUGU | -3.78 ± 0.36 | -2.53 ± 0.27
CUGUAGCAAUAUUACGGAGA | -2.5 ± 0.21 | -3.56 ± 0.34
CUGUAGCAAUAUUACGGAGC |  | -2.55 ± 0.49
CUGUAGCAAUAUUACGGCAG | -3.85 ± 0.33 | -1.32 ± 0.24
CUGUAGCAAUAUUACGGCUC | -2.55 ± 0.19 | -2.13 ± 0.29
CUGUAGCAAUAUUACGGGAG | -4.83 ± 0.29 | -1.67 ± 0.13
CUGUAGCAAUAUUACGGGGC | -4.95 ± 0.36 | -2.14 ± 0.19
CUGUAGCAAUAUUACGGUAA | -3.63 ± 0.24 | -2.3 ± 0.26
CUGUAGCAAUAUUACGGUCA | -2.29 ± 0.25 | -2.63 ± 0.34

Sequence | self-splicing fitness (ln) (30 °C) | self-splicing fitness (ln) (37 °C)
CUGUAGCAAUAUUACGUAAC | -3.09 ± 0.46 | -2.24 ± 0.5
CUGUAGCAAUAUUACGUGCC | -3.49 ± 0.35 | -2.21 ± 0.24
CUGUAGCAAUAUUACGUGUA | -4.12 ± 0.3 | -2.05 ± 0.21
CUGUAGCAAUAUUACGUUUU | -4.23 ± 0.35 | -2.23 ± 0.19
CUUAAGCAAUAUUACGAGAA | -2.01 ± 0.34 | -2.91 ± 0.47
CUUAAGCAAUAUUACGAUAU | -3.29 ± 0.2 | -1.4 ± 0.17
CUUAAGCAAUAUUACGCAGG | -3.05 ± 0.21 | -2.96 ± 0.32
CUUAAGCAAUAUUACGCAGU | -3.71 ± 0.46 | -2.56 ± 0.28
CUUAAGCAAUAUUACGCCCG | -1.46 ± 0.28 | 0.386 ± 0.3
CUUAAGCAAUAUUACGGCAU | -3.68 ± 0.23 | -3.67 ± 0.34
CUUAAGCAAUAUUACGGGAC | -3.6 ± 0.28 | -1.26 ± 0.13
CUUAAGCAAUAUUACGGGGC | -3.68 ± 0.2 | -2.63 ± 0.21
CUUAAGCAAUAUUACGGUCG | 0.0331 ± 0.082 | 0.0238 ± 0.093
CUUAAGCAAUAUUACGUCAA | -3.38 ± 0.35 | -2.33 ± 0.21
CUUAAGCAAUAUUACGUCCA | -2.93 ± 0.48 | -2.34 ± 0.46
CUUAAGCAAUAUUACGUGCU | -2.16 ± 0.24 | -2.1 ± 0.18
CUUAAGCAAUAUUACGUGGC |  | 0.00177 ± 0.26
CUUAAGCAAUAUUACGUUAG | -3.59 ± 0.23 | -1.59 ± 0.17
CUUCAGCAAUAUUACGAGGG | -3.48 ± 0.22 | -2.31 ± 0.22
CUUCAGCAAUAUUACGAUGG | -2.3 ± 0.11 | -1.38 ± 0.15
CUUCAGCAAUAUUACGCAUC | -2.85 ± 0.22 | -2.68 ± 0.22
CUUCAGCAAUAUUACGCCAU | -4.2 ± 0.3 | -2.02 ± 0.23
CUUCAGCAAUAUUACGCCGG | -2.73 ± 0.34 | 
CUUCAGCAAUAUUACGCGCA | -1.93 ± 0.29 | 0.383 ± 0.28
CUUCAGCAAUAUUACGCUCU | -3.79 ± 0.39 | 

Sequence | self-splicing fitness (ln) (30 °C) | self-splicing fitness (ln) (37 °C)
CUUCAGCAAUAUUACGGACA | -3.26 ± 0.35 | -2.3 ± 0.26
CUUCAGCAAUAUUACGGAUC | -1.38 ± 0.08 | -0.259 ± 0.1
CUUCAGCAAUAUUACGGGAA | -1.22 ± 0.097 | -2.08 ± 0.1
CUUCAGCAAUAUUACGGGAC | -2.8 ± 0.11 | -0.836 ± 0.12
CUUCAGCAAUAUUACGGGGU | -3.95 ± 0.2 | -2.45 ± 0.25
CUUCAGCAAUAUUACGGGUC | -3.39 ± 0.28 | -0.947 ± 0.25
CUUCAGCAAUAUUACGGUGC | -3.36 ± 0.21 | -1.56 ± 0.31
CUUCAGCAAUAUUACGUCAC |  | -1.41 ± 0.19
CUUCAGCAAUAUUACGUCCG | -0.583 ± 0.056 | -0.437 ± 0.09
CUUCAGCAAUAUUACGUCGG | -1.85 ± 0.15 | -1.79 ± 0.24
CUUCAGCAAUAUUACGUCUG | -2.73 ± 0.12 | -1.48 ± 0.16
CUUCAGCAAUAUUACGUUAG | -1.66 ± 0.071 | -1.25 ± 0.094
CUUCAGCAAUAUUACGUUCA | -3.63 ± 0.26 | -2.04 ± 0.23
CUUGAGCAAUAUUACGAAAA | -2.53 ± 0.38 | -1.92 ± 0.38
CUUGAGCAAUAUUACGAAAC | -4 ± 0.33 | -2.78 ± 0.36
CUUGAGCAAUAUUACGAAUC | -4.03 ± 0.31 | -1.86 ± 0.26
CUUGAGCAAUAUUACGACGC | -2.13 ± 0.39 | -1.9 ± 0.46
CUUGAGCAAUAUUACGACUG | -0.383 ± 0.084 | 0.0311 ± 0.12
CUUGAGCAAUAUUACGAGUG | -1.72 ± 0.081 | -0.765 ± 0.093
CUUGAGCAAUAUUACGCCGG | -4.04 ± 0.46 | -1.65 ± 0.47
CUUGAGCAAUAUUACGCGAU |  | 1.12 ± 0.27
CUUGAGCAAUAUUACGCGUU | -4.07 ± 0.39 | -2.14 ± 0.23
CUUGAGCAAUAUUACGGACA | -2.41 ± 0.37 | 
CUUGAGCAAUAUUACGGAUA | -3.62 ± 0.4 | -1.76 ± 0.4
CUUGAGCAAUAUUACGGCUU | -3.95 ± 0.22 | -2.41 ± 0.24

Sequence | self-splicing fitness (ln) (30 °C) | self-splicing fitness (ln) (37 °C)
CUUGAGCAAUAUUACGGUCG | -1.67 ± 0.15 | -2.3 ± 0.3
CUUGAGCAAUAUUACGGUGG | -2.55 ± 0.13 | -1.52 ± 0.12
CUUGAGCAAUAUUACGUCCA | -3.91 ± 0.39 | -2.55 ± 0.41
CUUGAGCAAUAUUACGUCGG | -2.62 ± 0.11 | -1.04 ± 0.12
CUUGAGCAAUAUUACGUGCG | -2.22 ± 0.13 | -0.809 ± 0.14
CUUGAGCAAUAUUACGUGGC |  | -2.41 ± 0.31
CUUGAGCAAUAUUACGUUCU | -2.75 ± 0.41 | -3.71 ± 0.42
CUUGAGCAAUAUUACGUUUU | -3.92 ± 0.28 | -3.44 ± 0.3
CUUUAGCAAUAUUACGAACA | -3.07 ± 0.41 | 
CUUUAGCAAUAUUACGAAUC | -1.01 ± 0.45 | 
CUUUAGCAAUAUUACGACGA |  | -1.82 ± 0.24
CUUUAGCAAUAUUACGAGCA | -3.14 ± 0.25 | -3.05 ± 0.3
CUUUAGCAAUAUUACGAUGG | -1.01 ± 0.1 | -0.752 ± 0.13
CUUUAGCAAUAUUACGAUUA |  | -1.92 ± 0.31
CUUUAGCAAUAUUACGCAAC | -1.73 ± 0.24 | 
CUUUAGCAAUAUUACGCAGA |  | -2.09 ± 0.3
CUUUAGCAAUAUUACGCCCU | -3.13 ± 0.38 | -3.23 ± 0.25
CUUUAGCAAUAUUACGCCUA | -3.11 ± 0.3 | -1.73 ± 0.3
CUUUAGCAAUAUUACGCGGA | -2.48 ± 0.27 | -2.81 ± 0.32
CUUUAGCAAUAUUACGCUUA | -3.33 ± 0.37 | -3.35 ± 0.4
CUUUAGCAAUAUUACGGCAG | -0.944 ± 0.12 | -0.552 ± 0.14
CUUUAGCAAUAUUACGGGGC | -3.44 ± 0.28 | -2.54 ± 0.38
CUUUAGCAAUAUUACGGGGU | -3.02 ± 0.24 | -2.94 ± 0.27
CUUUAGCAAUAUUACGGUAU | -4.49 ± 0.34 | -2.4 ± 0.24
CUUUAGCAAUAUUACGGUGA |  | -2.08 ± 0.3

From the supplement of paper PMC7877785
